Reference: PMC6152312, “Structural Insight into the Recognition of r(UAG) by Musashi-1 RBD2, and Construction of a Model of Musashi-1 RBD1-2 Bound to the Minimum Target RNA”

Molecular target: Msi1(109-200) (RBD2+) (mouse, UniProt Q61474 109-200)
Test: NMR titration (15N-1H HSQC); 1:1 stoichiometry, slow exchange; 20 mM MES pH 6.0, 100 mM NaCl, 1 mM DTT, 5% D2O, 298 K (NMR sample; titration at 80 uM protein)
Details: protein: recombinant; tags: N-terminal His6 cleaved by thrombin; extra GSHM at N-terminus; single strand

Msi1(109-200) (RBD2+), sequence (Q61474 109-200): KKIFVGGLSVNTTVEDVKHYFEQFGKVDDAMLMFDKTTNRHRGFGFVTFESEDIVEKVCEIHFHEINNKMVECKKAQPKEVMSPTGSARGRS

Q: Does GUAGU (ssRNA) [r(GUAGU)] bind?
A: Result: binds
